Columns and labels:
Assay in all cases: cell-based or functional assay
[1] = molecular target: human Kv1.1 potassium channel (α-subunit) (human) (UniProt Q09470)
[2] = molecular target: human Kv1.2 potassium channel (α-subunit) (human) (UniProt P16389)
[3] = molecular target: human Kv1.3 potassium channel (potassium voltage-gated channel subfamily A member 3, α-subunit) (human) (UniProt P22001)
[4] = molecular target: human Kv1.6 potassium channel (α-subunit) (human) (UniProt P17658)
human Kv1.6 potassium channel (α-subunit) (human), sequence (P17658 whole entry): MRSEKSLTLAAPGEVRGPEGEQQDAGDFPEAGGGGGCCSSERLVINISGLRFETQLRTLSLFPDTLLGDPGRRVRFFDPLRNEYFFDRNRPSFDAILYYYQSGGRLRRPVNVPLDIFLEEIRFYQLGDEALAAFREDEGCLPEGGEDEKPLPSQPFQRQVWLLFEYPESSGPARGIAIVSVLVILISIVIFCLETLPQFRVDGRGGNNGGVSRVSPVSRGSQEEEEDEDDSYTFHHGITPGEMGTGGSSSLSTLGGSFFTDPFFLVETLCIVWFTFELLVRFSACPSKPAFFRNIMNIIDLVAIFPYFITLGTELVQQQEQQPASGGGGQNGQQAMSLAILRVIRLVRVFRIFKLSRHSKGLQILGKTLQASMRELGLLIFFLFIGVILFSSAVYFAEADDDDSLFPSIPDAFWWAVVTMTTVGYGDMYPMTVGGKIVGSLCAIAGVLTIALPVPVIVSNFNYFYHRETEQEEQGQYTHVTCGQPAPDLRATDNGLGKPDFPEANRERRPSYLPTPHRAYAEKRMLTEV

human Kv1.2 potassium channel (α-subunit) (human), sequence (P16389 whole entry): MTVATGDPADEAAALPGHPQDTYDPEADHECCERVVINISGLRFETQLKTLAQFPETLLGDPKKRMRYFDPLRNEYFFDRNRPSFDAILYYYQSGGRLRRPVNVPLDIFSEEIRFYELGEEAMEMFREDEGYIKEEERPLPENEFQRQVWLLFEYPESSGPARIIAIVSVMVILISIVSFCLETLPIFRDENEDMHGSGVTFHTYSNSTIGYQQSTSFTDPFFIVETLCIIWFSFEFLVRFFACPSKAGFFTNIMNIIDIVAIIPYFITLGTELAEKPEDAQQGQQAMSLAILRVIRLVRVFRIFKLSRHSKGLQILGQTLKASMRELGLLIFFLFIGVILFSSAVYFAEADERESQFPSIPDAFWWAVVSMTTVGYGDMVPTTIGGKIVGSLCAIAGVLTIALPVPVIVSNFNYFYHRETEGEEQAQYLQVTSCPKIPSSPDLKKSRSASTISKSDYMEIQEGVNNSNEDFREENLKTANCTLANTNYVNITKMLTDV
human Kv1.3 potassium channel (potassium voltage-gated channel subfamily A member 3, α-subunit) (human), sequence (P22001 whole entry): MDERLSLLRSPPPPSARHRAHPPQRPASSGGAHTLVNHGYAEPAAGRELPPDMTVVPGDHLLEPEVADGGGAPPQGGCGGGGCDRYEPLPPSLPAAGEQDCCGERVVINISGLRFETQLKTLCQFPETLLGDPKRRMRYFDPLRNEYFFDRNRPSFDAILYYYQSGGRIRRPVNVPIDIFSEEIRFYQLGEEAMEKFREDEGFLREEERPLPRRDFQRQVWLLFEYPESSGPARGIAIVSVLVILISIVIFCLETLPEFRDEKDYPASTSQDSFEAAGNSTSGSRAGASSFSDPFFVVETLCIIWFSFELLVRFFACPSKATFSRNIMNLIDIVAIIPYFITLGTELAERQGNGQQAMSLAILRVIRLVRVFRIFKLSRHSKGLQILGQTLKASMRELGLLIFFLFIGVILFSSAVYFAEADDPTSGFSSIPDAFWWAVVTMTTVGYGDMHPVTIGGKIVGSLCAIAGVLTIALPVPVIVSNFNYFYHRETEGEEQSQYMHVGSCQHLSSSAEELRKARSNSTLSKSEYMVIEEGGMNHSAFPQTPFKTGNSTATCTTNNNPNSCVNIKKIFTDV
human Kv1.1 potassium channel (α-subunit) (human), sequence (Q09470 whole entry): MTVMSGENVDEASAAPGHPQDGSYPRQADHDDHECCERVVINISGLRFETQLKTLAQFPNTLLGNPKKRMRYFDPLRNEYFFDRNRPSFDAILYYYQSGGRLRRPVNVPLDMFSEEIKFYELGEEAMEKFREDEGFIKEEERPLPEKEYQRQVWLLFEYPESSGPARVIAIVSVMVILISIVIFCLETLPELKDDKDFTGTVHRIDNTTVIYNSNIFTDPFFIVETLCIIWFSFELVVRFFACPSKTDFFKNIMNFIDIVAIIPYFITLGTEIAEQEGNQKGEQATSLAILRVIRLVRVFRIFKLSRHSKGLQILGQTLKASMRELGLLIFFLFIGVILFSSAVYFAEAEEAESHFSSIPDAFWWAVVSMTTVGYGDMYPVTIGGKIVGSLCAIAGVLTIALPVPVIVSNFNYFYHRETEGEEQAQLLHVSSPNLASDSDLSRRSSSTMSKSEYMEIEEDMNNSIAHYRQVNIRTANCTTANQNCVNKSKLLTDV

Row | Substance | Potency IC50 (patch clamp) [1] | Selectivity Kv1.1/Kv1.3 [1] | Potency IC50 (patch clamp) [2] | Selectivity Kv1.2/Kv1.3 [2] | Potency IC50 (patch clamp) [3] | Potency IC50 (patch clamp) [4] | Selectivity Kv1.6/Kv1.3 [4]
1 | Vm24 (peptide) | 0.097 nM | 0.65 | 4.7 nM | 31 | 0.15 nM | 21 nM | 139
2 | ShK (peptide) |  |  | 11 nM |  | 0.017 nM | 0.19 nM | 
3 | Moka1 (peptide) | > 3000 nM | > 300 | 275 nM | 31 | 9 nM | > 3000 nM | > 300

Reference: patent US20220251151A1
